Source: patent US20240294650A1 (Alector, published 2024)

T1: human MerTK (human, UniProt Q12866 21-999)
T1 construct: endogenous receptor on cells; also called human MerTK endogenously expressed on SK-MEL-5 cells; MerTK on human macrophages
T1 sequence: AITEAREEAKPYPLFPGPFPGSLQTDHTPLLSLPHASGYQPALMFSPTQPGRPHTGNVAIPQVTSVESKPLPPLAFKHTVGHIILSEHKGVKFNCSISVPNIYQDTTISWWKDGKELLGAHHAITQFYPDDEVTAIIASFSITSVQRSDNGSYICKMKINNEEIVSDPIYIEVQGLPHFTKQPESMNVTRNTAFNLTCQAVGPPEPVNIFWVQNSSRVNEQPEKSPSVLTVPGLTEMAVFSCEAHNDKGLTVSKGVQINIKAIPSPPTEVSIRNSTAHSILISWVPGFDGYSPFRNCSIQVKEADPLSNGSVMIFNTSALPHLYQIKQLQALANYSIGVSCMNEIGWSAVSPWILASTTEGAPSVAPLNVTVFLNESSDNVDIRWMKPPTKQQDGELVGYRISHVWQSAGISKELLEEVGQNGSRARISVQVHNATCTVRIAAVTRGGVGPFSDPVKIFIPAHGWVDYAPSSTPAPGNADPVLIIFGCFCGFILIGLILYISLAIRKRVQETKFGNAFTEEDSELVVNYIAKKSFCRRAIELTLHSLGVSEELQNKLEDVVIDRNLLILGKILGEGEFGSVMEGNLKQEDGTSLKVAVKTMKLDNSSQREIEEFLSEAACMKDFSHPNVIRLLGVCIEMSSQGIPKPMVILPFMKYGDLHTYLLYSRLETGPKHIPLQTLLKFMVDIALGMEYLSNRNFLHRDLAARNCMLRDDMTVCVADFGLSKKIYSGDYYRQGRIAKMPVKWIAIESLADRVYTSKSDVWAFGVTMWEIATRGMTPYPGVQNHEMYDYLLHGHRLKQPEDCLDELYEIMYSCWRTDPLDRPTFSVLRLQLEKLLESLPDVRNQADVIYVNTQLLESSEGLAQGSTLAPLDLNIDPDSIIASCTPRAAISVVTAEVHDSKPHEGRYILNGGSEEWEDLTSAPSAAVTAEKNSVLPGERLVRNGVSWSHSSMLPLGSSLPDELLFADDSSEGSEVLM

T2: recombinant human MerTK extracellular domain (human, UniProt Q12866 21-505)
T2 construct: also called human MerTK ECD; not shown: polyHis or TEVS/Thrombin/murine IgG2a-Fc tag
T2 sequence: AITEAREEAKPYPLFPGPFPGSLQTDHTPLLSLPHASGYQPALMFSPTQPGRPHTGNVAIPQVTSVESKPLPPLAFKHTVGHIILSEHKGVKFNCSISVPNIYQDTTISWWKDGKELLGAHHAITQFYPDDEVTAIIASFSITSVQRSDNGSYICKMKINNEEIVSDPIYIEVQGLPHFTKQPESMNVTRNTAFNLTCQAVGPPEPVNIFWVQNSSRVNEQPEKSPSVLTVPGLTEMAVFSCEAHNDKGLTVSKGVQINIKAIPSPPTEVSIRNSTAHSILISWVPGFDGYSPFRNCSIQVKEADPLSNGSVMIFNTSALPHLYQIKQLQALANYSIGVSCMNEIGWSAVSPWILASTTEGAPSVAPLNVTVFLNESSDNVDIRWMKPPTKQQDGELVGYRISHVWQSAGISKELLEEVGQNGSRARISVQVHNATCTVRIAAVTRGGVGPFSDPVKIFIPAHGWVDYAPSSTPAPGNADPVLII


Columns and labels:
human MerTK [1] = target: T1, human MerTK; assay: FACS, SK-MEL-5 cells, 10 ug/ml
Experimental: To determine whether recombinant anti-human MerTK antibodies of the present disclosure bind to human MerTK endogenously expressed on SK-MEL-5 cells and CHO cells overexpressing mouse MerTK (CHO-muMerTK OE cells), as compared to A375 and parental CHO cells as negative controls, the following experiments were performed. SK-MEL-5 cells, A375 cells, CHO-muMerTK OE cells, and CHO parental cells were plated at 100,000 cells/well. Anti-MerTK antibodies were added to the cells at 10 μg/ml. After 60 minutes on ice, cells were washed and then stained with PE-conjugated goat anti-human IgG antibody (Southern Biotech Cat #2040-09, Birmingham, AL) in the presence of Fc block solution on ice for 30 minutes, and then washed twice with cold FACS buffer (2% FBS in PBS). Mouse anti-human MerTK-PE conjugated (Biolegend, Clone 590H11G1E3) or anti-mouse MerTK-PE conjugated (ThermoFisher, Clone DS5MMER) antibodies were used as positive controls. Stained cells were acquired on a BD FACS Canto II cytometer and the mean fluorescence intensity (MFI) was calculated with FlowJo.

[2] = target: T2, recombinant human MerTK extracellular …; assay: SPR Carterra LSA, Ab immobilised
How it was run: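 Surface plasmon resonance on a Carterra LSA measured affinity of immobilized antibodies for human, cynomolgus or mouse MerTK ectodomain diluted in HBS-TE with 0.5 mg/ml BSA. Analytes flowed over the full array, surfaces were regenerated with Protein A/G Elution Buffer plus 1M NaCl or 10 mM Glycine pH 2.5, and spots binding under 25 RU were discarded before kinetic fitting.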

human MerTK [3] = target: T1, human MerTK; assay: cell-based or functional assay

MFI (human MerTK [1]) | Kd [2] | Fold increase in PAKT over IgG control (human MerTK [3]) | Binder
40200 MFI | 52 nM | 4.5 fold | MTK-225 (antibody, human IgG1, V domains shown) VH: EVQLQQSGPELVKPGASVKIFCKASGYTFTAYNMDWVKQSHGKSLEWIGDINPNNGGTIYNQKFKGKATLTVDKSSSTAYMELRSLTSEDTAVYYCARRRRYGNTYYWYFDVWGTGTTVTVSS VL: DIQMTQSPASLSVSVGETVTITCRASENIYSSLAWYQQKQGKSPQLLVYAATNLADGVPSRFSGSGSGTQFYLKINGLQSEDFGSYYCQHFWGTSYTFGGGTKLEIK
14100 MFI | 19 nM | 2.6 fold | MTK-208 (antibody, human IgG1, V domains shown) VH: QVQLQQPGAELVVPGASVRLSCKASGYTFINYWMHWVKQRPGQGLEWIGEIDPSDSYANYNQKFKDKSTLSLDKSSSTAYMQLSSLTSEDSAVYYCARCDYYGRLDYWGQGTTLTVSS VL: QVVLTQSPAIMSASPGEKVTITCSASSSVSYMLWFQQKPGTSPKLWIYSTSNLASGVPARFSGSGSGTSYSLTISRLEAEDAATYYCQQRSSYPPITFGAGTKLELK
42800 MFI | 29 nM | 4.4 fold | MTK-221 (antibody, human IgG1, V domains shown) VH: QVTLKESGPGMLQSSQTLSLTCSFSGFSLSTSGMGVSWIRQPSGKGLEWLAHIYWDDDKRYNTSLQSRLTISKDTSRNQVFLKITSVDTADTATYFCGRLGAYSAFPYYFDYWGQGTTLTVSS VL: DIQMTQSPSSLSASLGGKVTITCKASQDIHKHIAWYQHKPGKGPRLLIHYTSTLQPGIPSRFSGSGSGRDYSFSISNLEPEDLATYYCLQYDNLWTFGGGTKLEIK
1190 MFI | 52 nM | 1 fold | MTK-207 (antibody, human IgG1, V domains shown) VH: QVQLKESGPGLVAPSQSLSITCTVSGISLTSYGVSWVRQPPGKGLEWLGIIWGDGSTNYHSALISRLSISKDNSKSQVFLKLNSLQTDDTATYYCAKGRYGNYEDWYFDVWGTGTTVTVSS VL: DIQMTQSPASLSASVGETVTITCRASGNIHNYLAWYQQKQGKSPQLLVYNAKTLAAGVPSRFSGSGSGTQYSLKINSLQPEDFGSYYCQHFWSIPLTFGAGTKLELK
